Experiment [1] has as its target T1, human IL-36α(R12), truncated (human, UniProt Q9UHA7 6-158).
T1 chain: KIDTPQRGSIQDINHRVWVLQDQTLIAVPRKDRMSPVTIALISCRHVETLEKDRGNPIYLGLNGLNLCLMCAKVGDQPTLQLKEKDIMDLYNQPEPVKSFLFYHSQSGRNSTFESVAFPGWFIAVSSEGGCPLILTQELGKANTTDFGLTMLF
Nature of the experiment: cell-based or functional assay.

For experiment [2], the target named is T2, cynomolgus IL-36α, truncated (cynomolgus macaque (Macaca fascicularis), UniProt Q9UHA7 14-158 (human entry), limits assumed).
T2 chain: T1 chain with I2S, D3E, T4M, R7P, G8V, T24I, M34V, A40S, V74A
Nature of the experiment: cell-based or functional assay.

Experiment [3] deals with T3, human IL-36γ, truncated (human, UniProt Q9NZH8 18-169).
T3 sequence: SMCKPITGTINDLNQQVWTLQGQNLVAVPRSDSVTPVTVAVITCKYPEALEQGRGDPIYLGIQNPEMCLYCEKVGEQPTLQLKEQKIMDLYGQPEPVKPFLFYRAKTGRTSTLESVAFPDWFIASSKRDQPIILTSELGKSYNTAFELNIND
Nature of the experiment: cell-based or functional assay.

Experiment [4] addresses T4, cynomolgus IL-36γ, truncated (cynomolgus macaque (Macaca fascicularis), UniProt Q9NZH8 18-167 (human entry), limits assumed).
T4 chain: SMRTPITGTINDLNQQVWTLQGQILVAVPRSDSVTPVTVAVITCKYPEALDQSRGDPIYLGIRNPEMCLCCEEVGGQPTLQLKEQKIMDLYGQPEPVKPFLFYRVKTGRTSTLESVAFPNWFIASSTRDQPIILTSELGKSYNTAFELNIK
Nature of the experiment: cell-based or functional assay.

Experiment [5] addresses T5, human IL-36α(Q12), truncated (human, UniProt Q9UHA7 6-158).
T5 construct: Untagged after removal of the His-SUMO tag
T5 sequence: T1 chain with R7Q
Nature of the experiment: SPR, Biacore T200, antibody on chip, IL-36 as analyte, 1:1 Langmuir fit. On the procedure: (§1) Antibodies were further tested for their binding to recombinant human or cynomolgus IL36α, IL-36γ in Biacore assays. In order to kinetically analyze the binding activity of the IL-36α and IL-36γ dual antagonist antibodies, the binding activity to human and cynomolgus IL-36α and IL-36γ was measured by surface plasmon resonance method (SPR). All of the following manipulations were carried out using a Biacore T200 (GE Healthcare Life Sciences, Pittsburgh, Pa.).
(§2) To determine antibody affinity to human and cynomolgus IL36, recombinant antibodies were immobilized on a CM5 sensor chip (cat# BR100012, GE Healthcare Life Sciences, Pittsburgh, Pa.) by an amine coupling chemistry. In particular, the kinetic assay was carried out by immobilizing on the chip approximately 2000 RU of recombinant antibody. Thereafter, recombinant human or cynomolgus IL36 proteins, serially diluted from a high concentration, were allowed to run at a flow rate of 30 μL/min onto the chip for 420 seconds. The dissociation time was 3600 seconds and the binding curves were measured at 25° C. Regeneration was performed with 10 mM glycine pH 1.5 for 30s. Alternatively, the analytes were injected with increasing concentrations in a single cycle, the surface not being regenerated between injections, using a method referred to as “single cycle kinetics.” In particular, either anti-human or anti-mouse Fc specific antibodies were immobilized on a CM5 sensor chip (cat# BR100012, GE Healthcare Life Sciences, Pittsburgh, Pa.) by an amine coupling chemistry. Thereafter, IL-36α and IL-36γ dual antagonist mouse/human chimeric or mouse antibodies were captured at approximately 200 RUs, followed by injections of increasing concentrations of recombinant human and cynomolgus IL36 proteins. The association time was 300 seconds, and the final dissociation time was 1200 seconds. At the end of the analyte injections, the surface was regenerated with either 3M MgCl₂ (anti-human Fc capture antibody) for 30 s or 10 mM glycine-HCl pH 1.7 for 180 s (anti-mouse IgG capture antibody).
(§3) The raw data were double referenced by subtraction of the signals from a reference flow cell without immobilized ligand and a buffer blank. The sensorgram corresponding to each concentration was obtained.

For experiment [6], the target named is T3, human IL-36γ, truncated. The experiment can be described thus: cell-based or functional assay. This is another data set of the same source.
Experiment [7] deals with T1, human IL-36α(R12), truncated. Nature of the experiment: SPR, Biacore T200, antibody on chip, IL-36 as analyte, 1:1 Langmuir fit. On the procedure:
as §1, §2, §3
A general note: Surface plasmon resonance follows binding to a sensor surface in real time, without labels.

In experiment [8] the target is T3, human IL-36γ, truncated. Described as above. On the procedure: as §1, §2, §3
Experiment [9] concerns the target T1, human IL-36α(R12), truncated. The experiment can be described thus: SPR, Biacore, 1:1 Langmuir fit. On the procedure:
(§4) The humanized antibodies obtained in Example 6 were tested for their binding to recombinant human or cynomolgus macaque IL36a and IL-36γ in Biacore assays. The association time was set to 60 seconds, and the final dissociation time was set to 600 seconds. Equilibrium dissociation constant KD (kd/ka) of exemplary antibodies was determined using a 1:1 Langmuir fit model (see Tables 17-18 below).

The target of experiment [10] is T3, human IL-36γ, truncated. The experiment can be described thus: SPR, Biacore, 1:1 Langmuir fit. On the procedure:
as §4

Experiment [11] deals with T2, cynomolgus IL-36α, truncated. The experiment can be described thus: SPR, Biacore, 1:1 Langmuir fit. On the procedure: as §4
For experiment [12], the target named is T4, cynomolgus IL-36γ, truncated. Nature of the experiment: SPR, Biacore, 1:1 Langmuir fit. On the procedure: as §4
In experiment [13] the target is T1, human IL-36α(R12), truncated. Nature of the experiment: SPR, Biacore, 1:1 Langmuir fit; heads of c3 and c4 printed swapped. On the procedure: as §4
In experiment [14] the target is T3, human IL-36γ, truncated. The experiment is described as above. On the procedure: as §4
Experiment [15] has as its target T2, cynomolgus IL-36α, truncated. The experiment is described as above. On the procedure: as §4
The target of experiment [16] is T4, cynomolgus IL-36γ, truncated. Described as above. On the procedure:
as §4

Substitutions are numbered along the chain they refer to.

B1: m/h 144J171G (antibody, human IgG1, lambda, V domains shown)
VH: EVQLQQSGAELVEPGASVKLSCTASGFNIKDTYINWVKQRPEQGLEWIGRIDPANGYTRYAPKFQGKATITSDTSSNTAYLQLSSLTSEDAAVYSCSTLNYYGSSFFFDFWGQGTTLTVSS
VL: QAVVTQESALTTSPGETVTLTCRSSTGAVTTSNYANWVQEKPDHLFTGLIGGTNNRAPGVPARFSGSLIGDKAALTITGAQTEDEAIYFCALWYSNHWVFGGGTKLTVLG
notes: Mouse VH/VL joined to human IgG1 constant and human Ig lambda (IGLC2) constant; also called chimeric mouse/human 144J171G
Turning to B1, the “IC50 of IL-8 secretion, HaCaT, 10 nM human IL-36α, FIG. 1B” value in experiment [1] amounted to 39.2 nM. Also, the “IC50 of IL-8 secretion, HaCaT, 10 nM cynomolgus IL-36α, FIG. 2A” value in [2] came to 19.3 nM. The “IC50 of IL-8 secretion, HaCaT, 10 nM human IL-36γ, FIG. 1E” value in the experiment with human IL-36γ, truncated [3] is 19.4 nM. Also, the “IC50 of IL-8 secretion, HaCaT, 10 nM cynomolgus IL-36γ, FIG. 2C” value in [4] is 44.4 nM. Besides, in experiment [5], the Kd (usually the concentration at which binding is half-saturated) worked out at 7.01 nM; the koff (usually the rate constant with which the complex falls apart) came to 0.00868 s⁻¹; the on-rate constant (kon) – broadly, a measure of how fast the partners come together – was 1.24e+06 M⁻¹ s⁻¹.

B2: 144J171G (antibody, V domains shown)
VH: B1 VH
VL: QAVVTQESALTTSPGETVTLTCRSSTGAVTTSNYANWVQEKPDHLFTGLIGGTNNRAPGVPARFSGSLIGDKAALTITGAQTEDEAIYFCALWYSNHWVFGGGTKLTVL
As to B2, in the experiment with human IL-36γ, truncated [6], the “IC50 of IL-8 secretion, primary human monocytes, 50 nM human IL-36γ, FIG. 5D” value amounted to 113 nM. In addition, the “IC50 of IL-8 secretion, HaCaT, 10 nM human IL-36α, FIG. 1B” value in [1] turned out to be 27 nM. In addition, the “IC50 of IL-8 secretion, HaCaT, 10 nM cynomolgus IL-36α, FIG. 2A” value in experiment [2] turned out to be 16.8 nM. Also, the “IC50 of IL-8 secretion, HaCaT, 10 nM human IL-36γ, FIG. 1E” value with human IL-36γ, truncated [3] stood at 19.2 nM. The “IC50 of IL-8 secretion, HaCaT, 10 nM cynomolgus IL-36γ, FIG. 2C” value in experiment [4] came out at 82.7 nM.

B3: m/h 144D666C (antibody, human IgG1, lambda, V domains shown)
VH: EVQLQQSGAELVKPGASVKLTCTASGFNIKDTYIYWVKQRPAQGLEWIGRIDPANAYTKFDPKFQGKATLTADTSSNTAYLQLSSLTSEDTAVYYCTRFHWYGSSFFFDYWGQGTTLTVSS
VL: B1 VL with N54D, A57P, H97L
notes: Mouse VH/VL joined to human IgG1 constant and human Ig lambda (IGLC2) constant; also called chimeric mouse/human 144D666C
For the molecule B3, in the experiment with human IL-36γ, truncated [6], the “IC50 of IL-8 secretion, primary human monocytes, 6 nM human IL-36γ, FIG. 5C” value was 9.02 nM and the “IC50 of IL-8 secretion, primary human monocytes, 50 nM human IL-36γ, FIG. 5D” value was found to be 38.1 nM. Also, in experiment [7], the Kd was found to be 25.1 nM, the off-rate constant (koff) was found to be 0.00219 s⁻¹ and the on-rate constant (kon) came out at 87300 M⁻¹ s⁻¹. In the experiment with human IL-36γ, truncated [8], this molecule registered a Kd of 3.06 nM, a dissociation rate constant (koff) of 0.000342 s⁻¹ and a kon of 112000 M⁻¹ s⁻¹. In experiment [5], this molecule registered a Kd of 1.75 nM, a koff of 0.000834 s⁻¹ and an on-rate constant (kon) of 476000 M⁻¹ s⁻¹.

B4: 144D464A LV10re HV10b (antibody, V domains shown)
VH: QVQLVQSGAEVKKPGASVKVSCKASGFNIKDTYIHWVRQAPGQGLEWIGRIDPAIGTTRYDPKFQGRATITTDTSTSTVYLEFSSLRSEDTAVYYCARLHYFGNNFFFDYWGQGTLVTVSS
VL: QAVVTQEPSLTVSPGGTVTLTCRSSSGAVTTSNYANWVQEKPGQLFAGLIGGTNDRAPGVPARFSGSLLGGKAALTLSGAQPEDEAIYFCALWFSNHWVFGGGTKLTVL
notes: Humanized
In the case of B4, the Kd came to 1.87 nM in experiment [9]; 1.2 nM with human IL-36γ, truncated [10]; 1.12 nM in [11]; 1.02 nM in experiment [12]. For the same molecule, the off-rate constant (koff) in experiment [13] was found to be 0.000429 s⁻¹; with human IL-36γ, truncated [14], 0.000425 s⁻¹; in [15], 0.000415 s⁻¹; in experiment [16] it was 0.00047 s⁻¹. For the same molecule, the kon in experiment [13] was 229000 M⁻¹ s⁻¹; with human IL-36γ, truncated [14] it was 353000 M⁻¹ s⁻¹; in [15] it was 372000 M⁻¹ s⁻¹; in [16], 460000 M⁻¹ s⁻¹.

B5: 144D464A LV11re HV10b (antibody, V domains shown)
VH: B4 VH
VL: B4 VL with L77I
notes: Humanized
As for B5, the Kd in [9] is 1.86 nM; in the experiment with human IL-36γ, truncated [10], 1.21 nM; in experiment [11] it was 1.1 nM; in experiment [12], 1.04 nM. For the same molecule, the koff in [13] worked out at 0.000422 s⁻¹; with human IL-36γ, truncated [14] it was 0.00042 s⁻¹; in [15] it was 0.000407 s⁻¹; in experiment [16], 0.000463 s⁻¹. For the same molecule, the kon was 226000 M⁻¹ s⁻¹ in experiment [13]; 346000 M⁻¹ s⁻¹ in the experiment with human IL-36γ, truncated [14]; 369000 M⁻¹ s⁻¹ in experiment [15]; 446000 M⁻¹ s⁻¹ in experiment [16].

The record behind these values is US20210380675A1 (Kyowa Kirin, published 2021).
